# System: Escherichia coli TOP10
# Test: shrunken log2 fold change of peptide-encoding DNA abundance (4.5 h post-induction vs induction); higher = less antimicrobial activity (less host growth inhibition)
# Conditions: time post-induction: 4.5 h; library: site-saturation at positions 5, 18, 19, 20
# 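Note: peptides expressed intracellularly from a pBAD plasmid library in pooled LB shake-flask culture, induced with 0.3% L-arabinose, DNA abundance read by NGS, three biological replicates, DESeq2 with apeglm shrinkage.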
row,Sequence,shrunken log2 fold change
1,RRIRRRPPRLPRPRPRPRKYPRP,-0.33
2,RRIRRRPPRLPRPRPRPRLSPRP,-0.0979
3,RRIRRRPPRLPRPRPRPRMPPRP,0.381
4,RRIRRRPPRLPRPRPRPRMYPRP,-0.152
5,RRIRRRPPRLPRPRPRPRNRPRP,-0.0263
6,RRIRRRPPRLPRPRPRPRNWPRP,0.319
7,RRIRRRPPRLPRPRPRPRPNPRP,0.624
8,RRIRRRPPRLPRPRPRPRQEPRP,0.123
9,RRIRRRPPRLPRPRPRPRQQPRP,-0.0361
10,RRIRRRPPRLPRPRPRPRREPRP,0.435
11,RRIRRRPPRLPRPRPRPRRNPRP,0.223
12,RRIRRRPPRLPRPRPRPRSHPRP,-0.033
13,RRIRRRPPRLPRPRPRPRSPPRP,0.49
14,RRIRRRPPRLPRPRPRPRVDPRP,0.00278
15,RRIRRRPPRLPRPRPRPRVFPRP,0.849
16,RRIRRRPPRLPRPRPRPRVIPRP,0.0591
17,RRIRRRPPRLPRPRPRPRVVPRP,0.215
18,RRIRRRPPRLPRPRPRPRWDPRP,0.457
19,RRIRRRPPRLPRPRPRPRYYPRP,-0.438
20,RRIRRRPPRLPRPRPRPSAAPRP,1.13
21,RRIRRRPPRLPRPRPRPSAWPRP,0.462
22,RRIRRRPPRLPRPRPRPSCVPRP,0.259
23,RRIRRRPPRLPRPRPRPSEAPRP,-0.0295
24,RRIRRRPPRLPRPRPRPSESPRP,0.0539
25,RRIRRRPPRLPRPRPRPSFIPRP,-0.391

row,Sequence,shrunken log2 fold change
1,RRIRRRPPRLPRPRPRPSHPPRP,0.167
2,RRIRRRPPRLPRPRPRPSHTPRP,0.278
3,RRIRRRPPRLPRPRPRPSKPPRP,0.241
4,RRIRRRPPRLPRPRPRPSLYPRP,-0.35
5,RRIRRRPPRLPRPRPRPSMHPRP,0.324
6,RRIRRRPPRLPRPRPRPSMQPRP,0.404
7,RRIRRRPPRLPRPRPRPSMWPRP,0.168
8,RRIRRRPPRLPRPRPRPSNSPRP,-0.108
9,RRIRRRPPRLPRPRPRPSTVPRP,-0.117
10,RRIRRRPPRLPRPRPRPSWQPRP,0.133
11,RRIRRRPPRLPRPRPRPSWTPRP,0.46
12,RRIRRRPPRLPRPRPRPSYGPRP,-0.83
13,RRIRRRPPRLPRPRPRPSYLPRP,-0.36
14,RRIRRRPPRLPRPRPRPTAQPRP,0.244
15,RRIRRRPPRLPRPRPRPTASPRP,0.146
16,RRIRRRPPRLPRPRPRPTEKPRP,0.155
17,RRIRRRPPRLPRPRPRPTFFPRP,0.722
18,RRIRRRPPRLPRPRPRPTGVPRP,0.616
19,RRIRRRPPRLPRPRPRPTKEPRP,-0.0782
20,RRIRRRPPRLPRPRPRPTKFPRP,0.0982
21,RRIRRRPPRLPRPRPRPTLAPRP,0.939
22,RRIRRRPPRLPRPRPRPTMWPRP,0.364
23,RRIRRRPPRLPRPRPRPTNPPRP,0.122
24,RRIRRRPPRLPRPRPRPTNQPRP,0.111
25,RRIRRRPPRLPRPRPRPTPPPRP,0.845

row,Sequence,shrunken log2 fold change
1,RRIRRRPPRLPRPRPRPTQWPRP,0.183
2,RRIRRRPPRLPRPRPRPTRIPRP,0.71
3,RRIRRRPPRLPRPRPRPTSNPRP,0.123
4,RRIRRRPPRLPRPRPRPTTKPRP,0.0527
5,RRIRRRPPRLPRPRPRPTTVPRP,0.792
6,RRIRRRPPRLPRPRPRPTVLPRP,-0.227
7,RRIRRRPPRLPRPRPRPTVSPRP,0.119
8,RRIRRRPPRLPRPRPRPTVYPRP,-0.135
9,RRIRRRPPRLPRPRPRPTWKPRP,0.112
10,RRIRRRPPRLPRPRPRPVCLPRP,0.149
11,RRIRRRPPRLPRPRPRPVDMPRP,0.0522
12,RRIRRRPPRLPRPRPRPVDRPRP,0.0916
13,RRIRRRPPRLPRPRPRPVGGPRP,0.984
14,RRIRRRPPRLPRPRPRPVHFPRP,-0.278
15,RRIRRRPPRLPRPRPRPVHYPRP,0.0593
16,RRIRRRPPRLPRPRPRPVILPRP,-0.259
17,RRIRRRPPRLPRPRPRPVKVPRP,-0.1
18,RRIRRRPPRLPRPRPRPVLRPRP,1.11
19,RRIRRRPPRLPRPRPRPVMPPRP,0.338
20,RRIRRRPPRLPRPRPRPVMVPRP,-0.153
21,RRIRRRPPRLPRPRPRPVNPPRP,0.391
22,RRIRRRPPRLPRPRPRPVNQPRP,0.129
23,RRIRRRPPRLPRPRPRPVPKPRP,0.234
24,RRIRRRPPRLPRPRPRPVPPPRP,0.77
25,RRIRRRPPRLPRPRPRPVQCPRP,-0.138

row,Sequence,shrunken log2 fold change
1,RRIRRRPPRLPRPRPRPVQRPRP,0.254
2,RRIRRRPPRLPRPRPRPVQWPRP,0.143
3,RRIRRRPPRLPRPRPRPVSEPRP,0.34
4,RRIRRRPPRLPRPRPRPVSNPRP,-0.111
5,RRIRRRPPRLPRPRPRPVTCPRP,-0.108
6,RRIRRRPPRLPRPRPRPVTMPRP,0.0683
7,RRIRRRPPRLPRPRPRPVVCPRP,0.0897
8,RRIRRRPPRLPRPRPRPVWPPRP,0.36
9,RRIRRRPPRLPRPRPRPVWVPRP,0.566
10,RRIRRRPPRLPRPRPRPVYVPRP,-0.198
11,RRIRRRPPRLPRPRPRPWADPRP,-0.143
12,RRIRRRPPRLPRPRPRPWCTPRP,-0.0123
13,RRIRRRPPRLPRPRPRPWDLPRP,-0.04
14,RRIRRRPPRLPRPRPRPWESPRP,0.0904
15,RRIRRRPPRLPRPRPRPWIIPRP,-0.021
16,RRIRRRPPRLPRPRPRPWKLPRP,-0.0807
17,RRIRRRPPRLPRPRPRPWMYPRP,-0.305
18,RRIRRRPPRLPRPRPRPWNPPRP,-0.212
19,RRIRRRPPRLPRPRPRPWSCPRP,0.0681
20,RRIRRRPPRLPRPRPRPWSGPRP,0.0397
21,RRIRRRPPRLPRPRPRPWSPPRP,0.186
22,RRIRRRPPRLPRPRPRPWSQPRP,-0.132
23,RRIRRRPPRLPRPRPRPWVEPRP,0.0269
24,RRIRRRPPRLPRPRPRPWVRPRP,-0.0986
25,RRIRRRPPRLPRPRPRPWWLPRP,-0.00877

row,Sequence,shrunken log2 fold change
1,RRIRRRPPRLPRPRPRPWWPPRP,0.0939
2,RRIRRRPPRLPRPRPRPWYDPRP,-0.25
3,RRIRRRPPRLPRPRPRPWYWPRP,-0.039
4,RRIRRRPPRLPRPRPRPYADPRP,-0.0932
5,RRIRRRPPRLPRPRPRPYAEPRP,0.132
6,RRIRRRPPRLPRPRPRPYAYPRP,-0.189
7,RRIRRRPPRLPRPRPRPYCEPRP,-0.102
8,RRIRRRPPRLPRPRPRPYCMPRP,-0.546
9,RRIRRRPPRLPRPRPRPYCYPRP,-0.101
10,RRIRRRPPRLPRPRPRPYDNPRP,-0.636
11,RRIRRRPPRLPRPRPRPYDWPRP,-0.0665
12,RRIRRRPPRLPRPRPRPYFAPRP,0.487
13,RRIRRRPPRLPRPRPRPYFFPRP,-0.0972
14,RRIRRRPPRLPRPRPRPYFPPRP,0.31
15,RRIRRRPPRLPRPRPRPYHEPRP,0.016
16,RRIRRRPPRLPRPRPRPYHIPRP,-0.365
17,RRIRRRPPRLPRPRPRPYHPPRP,-0.34
18,RRIRRRPPRLPRPRPRPYKKPRP,0.142
19,RRIRRRPPRLPRPRPRPYLPPRP,-0.456
20,RRIRRRPPRLPRPRPRPYMQPRP,-0.264
21,RRIRRRPPRLPRPRPRPYQSPRP,-0.145
22,RRIRRRPPRLPRPRPRPYQYPRP,-0.0327
23,RRIRRRPPRLPRPRPRPYRTPRP,-0.394
24,RRIRRRPPRLPRPRPRPYSMPRP,-1.39
25,RRIRRRPPRLPRPRPRPYVYPRP,-0.209

row,Sequence,shrunken log2 fold change
1,RRIRRRPPRLPRPRPRPYWQPRP,-0.0961
2,RRIRSRPPRLPRPRPRPAATPRP,0.67
3,RRIRSRPPRLPRPRPRPADGPRP,0.218
4,RRIRSRPPRLPRPRPRPAESPRP,-0.04
5,RRIRSRPPRLPRPRPRPAETPRP,0.114
6,RRIRSRPPRLPRPRPRPAGAPRP,0.36
7,RRIRSRPPRLPRPRPRPAGPPRP,0.493
8,RRIRSRPPRLPRPRPRPAGYPRP,0.0337
9,RRIRSRPPRLPRPRPRPAIDPRP,-0.0382
10,RRIRSRPPRLPRPRPRPAIGPRP,-0.0608
11,RRIRSRPPRLPRPRPRPAKCPRP,0.0862
12,RRIRSRPPRLPRPRPRPAKDPRP,0.135
13,RRIRSRPPRLPRPRPRPALMPRP,0.323
14,RRIRSRPPRLPRPRPRPAMNPRP,-0.66
15,RRIRSRPPRLPRPRPRPAMRPRP,0.588
16,RRIRSRPPRLPRPRPRPAMTPRP,0.459
17,RRIRSRPPRLPRPRPRPANCPRP,-0.411
18,RRIRSRPPRLPRPRPRPANEPRP,0.0433
19,RRIRSRPPRLPRPRPRPANIPRP,-0.484
20,RRIRSRPPRLPRPRPRPAPMPRP,0.492
21,RRIRSRPPRLPRPRPRPAPRPRP,0.845
22,RRIRSRPPRLPRPRPRPAQIPRP,-0.0853
23,RRIRSRPPRLPRPRPRPAQKPRP,0.33
24,RRIRSRPPRLPRPRPRPARPPRP,0.691
25,RRIRSRPPRLPRPRPRPARWPRP,0.224
